The text below walks through data of the DeepSol protein solubility set.

This data set can be described thus: soluble on expression in E. coli; label from the status in PepcDB or PDB records.
In the case of “MSLLAQLDQKIAANGGLIVSCQPVPDSPLDKPEIVAAMALAAEQAGAVAIRIEGVANLQATRAVVSVPIIGIVKRDLEDSPVRITAYIEDVDALAQAGADIIAIDGTDRPRPVPVETLLARIHHHGLLAMTDCSTPEDGLACQKLGAEIIGTTLSGYTTPETPEEPDLALVKTLSEAGCRVIAEGRYNTPAQAADAMRHGAWAVTVGSAITRLEHICQWYNTAMKKAVL”, the “soluble on expression in E. coli” value is on record as “not soluble”. For the sequence “MSEPKRLFFAIDLPDDARAQIIAWRAAHFASEDGRPVAAANLHLTLAFLGDVSSDKQRALAQLAGRIRQPGFTLHLDDAGQWLRSRVVWLGMRQPPRGLLQLANMLRAQAARSGCYQSPQPFHPHITLLRDASHTVAIPPPGFCWSFPVTSFALYASSYGQGRTRYAELQRWTLGE”, the “soluble on expression in E. coli” value is “not soluble”. “CPQEDSDIAFLIDGSGSIIPHDFRRMKEFVSTVMEQLKKSKTLFSLMQYSEEFRIHFTFKEFQNNPNPRSLVKPITQLLGRTHTATGIRKVVRELFNITNGARKNAFKILVVITDGEKFGDPLGYEDVIPEADREGVIRYVIGVGDAFRSEKSRQELNTIASKPPRDHVFQVNNFEALKTIQNQLREKIFAIGSPGI”: the “soluble on expression in E. coli” value is “soluble”. With “GAMAMPMIEYLERFSLKAKINNTTNLDYSRRFLEPFLRGINVVYTPPQSFQSAPRVYRVNGLSRAPASSETFEHDGKKVTIASYFHSRNYPLKFPQLHCLNVGSSIKSILLPIELCSIEEGQALNRKDGATQVANMIKYAATS”, the “soluble on expression in E. coli” value is “soluble”. “MAALRYRRFLKLCEEWPVDETKRGRDLGAYLRQRVAQAFREGENTQIAEPEACDQMYESLARLHSNYYKHKYPRPRDTSFSGLSVEEYKLILSTDTLEEFQEMNKSMWKKLQEKFAPTRPEEKHKAWTRVLSRPRT”: the “soluble on expression in E. coli” value is “soluble”.

As to “MGAGPSDHRAITLEGTTVMVPVYNSTAQQSPYQLTTTADGGVALHHQGELTTTLETPPEPHFYNLQTAESIPYKAIALLHGKDVLATTLQQTCIRFRDRSESCQFCAIEQSLTSGQTIVRKTPEQVAEVVAAAVRLDGVRQLVMTTGTPNSRDRGARLMAETAAAVKAVVDIPIQAQCEPPDDPVWFSRMKAAGVNSLGMHLEVVEPEVRRRILPGKSELTLEHYYRAFEQAVAVFGRGEVSTYLLAGLGDSADSLIDCSRRLIAIGVYPFIVPFVPIAGTPLERHPAPTTAFMLQIYEAVGALLHDSDLRSAAMSAGLEHHHHHH”, the “soluble on expression in E. coli” value is “not soluble”. In the case of “MGSDKIHHHHHHMGVVETAEWLHLYYGRPEKLCEKFTKYIPLPKERLYRFLISKGMYRPVMRGEREIKELEKKEVWKELRAEYEKLKDWLKGPDVPVFILLSDSYNRTVQEEYNGRAGLSMRHVIFLFVCGRNSVEELKVLLAHEYHHICRLHQIETKETEYTLLDTMIMEGLAEQAVTERYSEKNNAPWTTYLSKEEAIYYWKNVVHERISIKRGTREHDILLNGFHSYPKMLGYALGFHIVKDCVTLEGEDTLSLLPIDAKEILNKANTFHI”, the “soluble on expression in E. coli” value is given as “not soluble”. For the sequence “VKIELTVNGLKIQAQYQNEEIENVHKPLLHMLAALQTVNPQRRTVVFLCAPPGTGKSTLTTFWEYLAQQDPELPAIQTLPMDGFHHYNSWLDAHQLRPFKGAPETFDVAKLTENLRQVVEGDCTWPQYDRQKHDPVEDALHVTAPLVIVEGNWLLLDDEKWLELASFCDFSIFIHAPAQILRERLISRKIAGGLTRQVAEAFYARTDGPNVERVLMNSRQANLIVEMTEEGRYHFTS”, the “soluble on expression in E. coli” value is on record as “soluble”. On to “EAEERQRNMINKTHVGLLLIDGQGRIEEINPMAKRYFSLSDSMVRQLQAWSLFDTGNPNATVPLLLKNLTEHQELADITNVETVARRSDGSLFPVLFSLIAVSWKDRRHYLVTLIDIS”, for which the “soluble on expression in E. coli” value is recorded as “not soluble”. “MNVREPEITSVTDLTDKELTQQWKIIDWKRVKEVVNNLQSRIASAAKSGNWKTVNKLSRLLTRSFYAKLLSIRKVTTNKGSRTPGIDGIIWSSSADKMRAALQLTNKGYRAKPLTRKYIRKKSGKLRPLSIPTMYDRAMQTLHSLVLGAIESAAGDKTSFGFKPYRSTKDAYAYLHLCLSKKVSPEWIVEGDIKACFDEISHNWILDNIPIDKRILKEFLKAGYIENYHLFPTEKGTPQGGPISPIIGNMSLNGLENALAMRFYSRSDGTIDKSHQNRRKVNYVRFADDLVVTADSPETALEIIDVIQAFLDPRGLKLSEEKTLVTNISEGFNFLGWNFRKYKGKLLPKPSKDSQKEIIKKIRDVLHKAKAWDQDRLIQTLNPIIRGWAEYHNHAVSSAIFNKLDEIVYNMLISWAKRRHSNKGFTWITTKYWHKSGKRKYVFCTELQTLERFSNAKIVRQRLASLNKNPFIDKEYFEQWKFMEYHRKKRITNPNSVLNLEHHHHHH”: the “soluble on expression in E. coli” value is on record as “not soluble”.
